Data as given in the DeepSol protein solubility set.

experiment: soluble on expression in E. coli; label from the status in PepcDB or PDB records

Sequence | soluble on expression in E. coli
RDIIQYIPARSSYGTPPFVPPGPSPYVGTGMQEYRKLRSTLDKSHSELKKNLKNETLKEVDELKSEAGLPGKAVSANDIRDEKSIVDALMDAKAKSLKAIEDRPANLYTASDFPQKSESMYQSQLLASRKFYGEFLDRHMSELAKAYSADIYKAQIAILKQTSQELENKARSLEAEAQRAAAEVEADYKARKANVEKKVQSELDQAGNALPQLTNPTPEQWLERATQLVTQAIANKKKLQTANNALIAKAPNALEKQKATYNADLLVDEIASLQARLDKLNAETARRKEIARQAAIRAANTYAMPANGSVVATAAGRGLIQVAQGAASLAQAISDAIAVLGRVLASAPSVMAVGFASLTYSSRTAEQWQDQTPDSVRYALGMDAAKLGLPPSVNLNAVAKASGTVDLPMRLTNEARGNTTTLSVVSTDGVSVPKAVPVRMAAYNATTGLYEVTVPSTTAEAPPLILTWTPASPPGNQNPSSTTPVVPKPVPVYEGATLTPVKATPETYPGVITLPEDLIIGFPADSGIKPIYVMFRDPRDVPGAATGKGQPVSGNWLGAASQGEGAPIPSQIADKLRGKTFKNWRDFREQFWIAVANDPELSKQFNPGSLAVMRDGGAPYVRESEQAGGRIKIEIHHKVRIADGGGVYNMGNLVAVTPKRHIEIHKGGK | not soluble
MSAVLNGKKPVSILLLGTDTGALGRNYKGRTDTIILATINPKTKTTTLMSLPRDSEVAVSGFEQDFPTKLNAAYAYGSAGTTIKTVQKWLNVPIDYYALINMGGMKKVVDEIGGVDITPIRTFTYEGYTFTKGQKEHMNGAKALAYSRMRYDDPLGDYGRQQRQRQLITAIIGESASASNLLKQDFLNSLAKQTRTDLTFGNLTSIVTNYRSATKNIVSDHAQGTGKMIDGQSFEVVSQSEKQRVTNVLRKSLNLKAATTGEKFANQNLEHHHHHH | soluble
MKTLEKRMKALDKRIMKFGKSLEGRLDARLIESALDYIHYSERFLAFEILCTYIEDFDVRLTEQESREISFINKEFEIESTSD | not soluble
MKENFLKQKRMEKNLTLEQVGNFVGVGKSTVRKWETGMIENMGRDKIVALSKILDVSPLEILGIPETEETPFVVPTNIMNIYKQLTTENQEAVFRYAQKKLTEQNYF | not soluble
MSLTIEDVAKLAGVSIATVSRVINGSGYVSEKTRYKVWKAIEELGYKPEISAKLLASKGKLFNIYVFASKRILSPLQNNGILGEFYGVIIRAIEENCGRLGMNVELKMLENFSESNGADGYIFIGGDLSEKTLKEIKSRKKPFVLVDHYIPGERVDCVISDGYDGAVYATNYLISKGFKRIVHVHGPLHPYGFKMRYDGYKDAMEKAGLMPRFYECDDTEEGTRKVIDIMLNSYGTPEAIFTSNDSIAFWVIKRLKEHNIKVPDDVSVIGFDDIVDAENFDPPLTTLRVFKYEMGCLACKRLHELLTGINPHPVRILVFTQFVKRKSTKEGHHHHHH | not soluble
MTIIAGLPVEYNDRFIRGIAVFAPWRKTPGNYHQSHGACLGRRSRTITVVDEQPQGMDMDPTCSLFTTGQCLGEPDLLASARRLQFFSHQYSIAVLMANARGNSALWDEYGRLIVRADRGSLLLVGQRSSQGWQGDIIPLR | not soluble
MGSDKIHHHHHHSCDDDGYSIGDIGWDWATVRATGGGGYYLEGDRWGMIDPVASSIPWYKPVDGERVVAFFNPLADTDKGAQVKIEGIQEVLTKEVEDMTAENEEEFGNDPIVIYQGDMWLGGKFLNIIFHQYLPRSEKHRISLVQNKIEPEAPETPEALNVDEDGYIHLELRYNTYDDVTGYRGWGRVSYNLEEFYPTAKDAAETEFKGFKVTINSKENGEGRVIVLDLDHPVGVPEKAKDVHSTSFVK | not soluble
MGSDKIHHHHHHMKALMFGWEFPPHILGGLGTASFGLTRGMAMQPDMDITFCIPKPWGDEDQSFLKIVGVNQVPIVWKDVDREYVQQRVSKAGMNADQYYKYRDHIYADFSYRHVTDLGCLEFSGRYPDNLLEEINNYSIVAGVIARTEEYDIIHAHDWLTYPAGIHAKNVSGKPLVIHVHATDYDRSRGNVNPDVYAIEKNGMDNADHIITVSNLTRQTVIEKYHQDPAKVTTVHNAVEPLSPEILAIPDKKGVKDKVITFLGRITMQKGPEYFVEAAAKVLAKAPYARFVMAGSGDMMDQMIRLAAARNISDRFHFTGFMKGKQVYEVLKASDVYVMPSVSEPFGISPLEAMQCGVPSIISKQSGCAEILDYAIKVDYWDIEALADAMYSIITYPAMHEFLKVEGKKEVDNIKWEYAGQKVRRIYDNVIGNK | not soluble
